Experimental findings from a protein production outcome set (Wang et al. 2014) are described below.

The series in a line: label from the status in PepcDB records.
Turning to “MRLVVLSDIHGNLGAFEAVLADIATQDVDDIISLGDNVGYGPDPGPVLRLLRQRGIDSVLGNHEAAIADRRRRRRFNSQSREALDLTEAWLDADGRACIASMPPVLLRHGCRFVHGMPPDSPFTYLFEFMGRRLPKVFTLFAEALCFVGHTHDLEVLRCDETGAVASVLLPTASPDVAGQMPPGPLPGPSPDATLATSPGAQPEGLTLSTASPRVTVQTLVLDAGARHLVNVGSVGQPRDGDPRAKYVVWDDTARTLTVRRVAYDVAAAVRRFAEAGVAQRYIDRLG”, the protein production entry is “failed”.
“MDSDADGGETVSNFSENSTDFEETEEYIVERILDRRHYMGQLQYLVKWLDYSDEDNTWESAADLDCHSLIDSIESQKSLKRGQELNNQYETKAKRLKIDP”: the protein production entry is recorded as “failed”.
“MWWPGTVIGVGAGFAVASIPGALLGALLGQAIDRRLRLQGWEDMRERLGGRPALRDDELLFVMLGRLAKCDGRVAEQHIQQARQEMVRLDLAEAARLRAINAFNRGKAGKDRLGGHLRRISQQPHAAEGTLRACWRMVWADGKMGNKERELLLDWGQKLGMSRRQVQAMSLEYEPRKATGAESVPMTYAAALRLLAVDADTDTDKVKQAYRRLVSRHHPDKLAGTGASEAQVREATARTRELHQAYAMIRKRRGL”: the protein production result is reported as “failed”.
Under “MKPGGTVRALDRLGSAEYPSSHMEVLVAEGTRPSRQRNQAAAAAAGEILYFLDDDSLTSPDFLARAAAHLADPSIAAVGGPSLTPASDSRFQRAIGVVLASRLGGGGARNRYRATGSPRRTSERELILCNLAMRRDVFLAEGGLDERLYPNEENELMDRISKRGMSLVHDPDLAVRRSQRPTFRAFVRQFFGYGRGRGEQTRIAGVRSVVDFLPTVFLIYLLLLPVAPWAPCFLPAALYGAAVMVSALSGAVHSRLYAALPWLVVLYPTLHLCYGAGLLKGLLAPRFRSGGGETAPVTIRCVKEFGTPWHLPAHGPREVPR” stands “failed”.
Under “MSRSAFTALLLSCVLLALSMPARADDLPYRFGLGKADITGEAAEVGMMGYSSLEQKTAGIHMRQWARAFVIEEAASGRRLVYVNTDLGMIFQAVHLKVLARLKAKYPGVYDENNVMLAATHTHSGPGGFSHYAMYNLSVLGFQEKTFNAIVDGIVRSIERAQARLQPGRLFYGSGELRNANRNRSLLSHLKNPDIVGYEDGIDPQMSVLSFVDANGELAGAISWFPVHSTSMTNANHLISPDNKGYASYHWEHDVSRKSGFVAAFAQTNAGNLSPNLNLKPGSGPFDNEFDNTREIGLRQFAKAYEIAGQAQEEVLGELDSRFRFVDFTRLPIRPEFTDGQPRQLCTAAIGTSLAAGSTEDGPGPLGLEEGNNPFLSALGGLLTGVPPQELVQCQAEKTILADTGNKKPYPWTPTVLPIQMFRIGQLELLGAPAEFTVMAGVRIRRAVQAASEAAGIRHVVFNGYANAYASYVTTREEYAAQEYEGGSTLYGPWTQAAYQQLFVDMAVALRERLPVETSAIAPDLSCCQMNFQTGVVADDPYIGKSFGDVLQQPRESYRIGDKVTVAFVTGHPKNDLRTEKTFLEVVNIGKDGKQTPETVATDNDWDTQYRWERVGISASKATISWSIPPGTEPGHYYIRHYGNAKNFWTQKISEIGGSTRSFEVLGTTP” stands “failed”.
As to “MREMQIMSQPEQSRLDLFIDRMVSQRACLEHAIAQTAGLSGPVYELGLGNGRTYHHLRQHVQGREIYVFERAVASHPDSTPPEAQLILGDIRETLPATLERFGATASLVHADLGGHNREKNDRFARLISPLIEPHLAQGGLMVSSDRMYFEGLEELPLPPGAVVGRCFIYRRG”, the protein production result is on record as “not failed”.
Under “MSLFEAILIILVLIIISAVISSSEISLAGARKLKLHSLAKDGDIRAEKVMRLQEQPGRFITMVQIGLNMVAILGGVVGESAITPYLAKLLAQYSQAEWTESTASWLSFALVTSAFVLLADLMPKRIAMTYPEQVAVRTINIMLCLITIFKPLVLLFDSIANLLFRLFGISTVRQDNMTSEDIVAVVDAGAKAGILKAQEHYLIENVFEMQERRVTSTMTTRENIIFLDRKDNREQVLATLGEDPYSKVLICDNGLDKILGYIETHDLLTQYLKNDHVSLVDSRLLRKPVFIPDTLSLYEVLELFKSAGEDFAVIVNEYALVVGILTINDVMSIVMGELVSTEEEQIMRRNEDSWLIDGATPLEDVMRALNIHTFPRDENYETIGGFMMYMLRKIPKKTDFVLYDKYKFEIIDTENFRIDQLMVSFRKDV” stands “failed”.
